According to the supplement of paper PMC9170038:

System: MS2 coat protein
Assay: apparent KD of MS2 coat protein; higher = weaker reporter binding
Conditions: Eterna round: R107
Method in brief: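 Designed RNA switches were transcribed on-chip from Illumina sequencing clusters and titrated with SNAP-549-labelled MS2 coat protein in twofold steps from 0.7 or 1.5 nM up to 3 µM. Each step lasted 0.8–1.5 h at first and 10–20 min by the end, in 100 mM Tris-HCl pH 7.5, 80 mM KCl and 4 mM MgCl2, without or with constant ligand. Apparent KD is the median, for each design, of fits to normalised cluster binding curves.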

[1] = input ligand: theophylline 20 uM
[2] = input ligand: tryptophan 2.4 mM
[3] = input ligand: theophylline 2 mM

| Sequence | apparent KD of MS2 coat protein (input ligand: arginine 13.2 mM) | apparent KD of MS2 coat protein [1] | apparent KD of MS2 coat protein [2] | apparent KD of MS2 coat protein (input ligand: none) | apparent KD of MS2 coat protein [3] |
| --- | --- | --- | --- | --- | --- |
| GAUCUUGCGGGCGCCCGCAAGGUUGCGGAUACCAGCGAGAUUAAUCGCCCUUGGCAGCCGAACAUGAGGAUCACCCAUGUCGGAC [Same State - Theophylline A Attempt #2 (HarryS)] | 0.00892 µM | 0.0115 µM | 0.0105 µM | – | – |
| UCACGACGGAUGGAUACCAGCGACAUGAGGAUCACCCAUGUAUGAGGAUCAGCCAUGUUAUGCCCUUGGCAGCCACGAAGGUCAU [YYYMULLIN] | 0.0132 µM | 0.0293 µM | 0.0182 µM | 0.019 µM | 0.195 µM |
| UUGUUGUUUGGAAGGAGCGUGGAUGAGUGAGAACAUGAGGAUCACCCAUGUUGUAUGAUACCGCAGGUAGGUCGCCGGGUGGUGG [11.aB] | 0.0169 µM | 0.0396 µM | 0.0175 µM | 0.0181 µM | 0.0215 µM |
| CAGGUUAGGGCGGCCGCCACUGUGGCUACGGUACAUGAGGAUCACCCAUGUUUGUGGUUGAUCUACAGGACCGGGCCCUGACACG [Matidier] | 0.0489 µM | 0.145 µM | 0.272 µM | 0.236 µM | 0.665 µM |
| GAGGACAUGAGGAUCACCCAUGUAAAUGAUACCAGUUGAGAGAGAGGCCCUUGGCAGCGUAAACAUGACAGCGAGCGAGAGUGCG [ss-theoA-0] | 0.0163 µM | 0.0192 µM | 0.0146 µM | 0.0131 µM | 0.0153 µM |
| UCGGGCAGAGCGGCCGCCACUGUAUGGCGUGCGGAUGACGGAACAUGAGGAUCACCCAUGUUGUUUAGGACCGGGCUUGCCGCGA [cocmullin] | 0.014 µM | 0.0147 µM | – | – | 0.0115 µM |
| UACAUGAGGAUCACCCAUGUCUGAACUGAAGGAGCGCUAAAUAAGGCAGGUAGGUCGCGGAAUUUUGUGUGCAUAUGCAUAUGGG [9.L] | 0.0345 µM | 0.0394 µM | 0.0382 µM | 0.0364 µM | 0.0379 µM |
| UAUCGUCAGACGGCCGCCACUAGAACAUGAGGAUCACCCAUGUACUAGUGGCAUACCUCAUGAACUAGGACCGGGUCUGACGAAU [(Trp1)-(Ms2)-(T)'-(M)'-(Trp2)_Design10] | 0.0102 µM | 0.0118 µM | – | – | 0.0102 µM |
| ACGACGCAUAGUGAUACCAGCACAACAUGAGGAUCACCCAUGUCACAUAUGUUGUAAUAAUGCCCUUGGCAGCACUAUGCGUCAG [SSTheo B #2] | 0.0346 µM | 0.0833 µM | 0.0508 µM | – | – |
| CACGCACGAUCGGCCGCCACUCAUGUAGCUUACAUGAGGAUCACCCAUGUAUUUUCUUUCUUAUAGAGGACCGGGAUCGUGCGUG [#04 Same State - Tryptophan B] | 0.021 µM | 0.0282 µM | – | – | 0.0245 µM |
| AAUAAGUAUCUGCUAGGUGAUCCAGCAGAUACCAGCUAGGAAACUAGCCCUUGGCAGCUGCAACAUGAGGAUCACCCAUGUAAUA [(T)'-(M)'-(T1)-(T2)-(M1)-(M2)_Design3] | 0.0987 µM | 0.193 µM | 0.407 µM | – | – |
| ACAUGAGGAUCACCCAUGUGAAGGCACGAUACCAGCUGAUCCCGUGGCCCUUGGCAGCGUCCGGUGUGGUCCGGCGGGUGGGACG [bbvmullin] | 0.0258 µM | 0.0754 µM | 0.0244 µM | 0.029 µM | 0.0503 µM |
| AGAUUCGACACGGCCGCCACUCGUGACGGAUUUCCGAGUGUCGAACAUGAGGAUCACCCAUGUCCGAGGACCGGGUGUUGAGUCU [XTryp B #12] | 0.0337 µM | 0.0438 µM | – | – | 0.0559 µM |
| UCGUAUGCGGCGGCCGCCACUCGCGGAUAACGAGAGCUUAACAUGAGGAUCACCCAUGUGUCAUGGAGGACCGGGCCCAUUCACA [popmullin] | 0.0304 µM | 0.0402 µM | – | – | 0.0375 µM |
| ACAUGAGGAUCACCCAUGUCAAGGCACGAUACCAGCUGAUCCCGUGGCCCUUGGCAGCGUCACGUUUGGUCCCGCGGAUGACACG [zczmullin] | 0.0384 µM | 0.111 µM | 0.0869 µM | – | – |
| AUUGUCGUGUCGGCCGCCACUGUCAUGGUUUUCGUGGAAAACAUGAGGAUCACCCAUGUAAUUGACAGGACCGGGACAUGGCGGC [Ricegesoer] | 0.00935 µM | 0.0111 µM | – | – | 0.0094 µM |
| AGCCACUCGAGUGAUCCUCACGAGUGGCAACGAGGACCGGUACGGCCGCCACUCGAAUAAACAUGAGGAUCACCCAUGUAAUAAU [T''-M-T'-T-MS2] | 0.0136 µM | 0.151 µM | – | – | 0.683 µM |
| CUCUGAGUCCGAAAGGACUCAGAGGCGGAUACCAGCGAGGUCCAUCGCCCUUGGCAGCCGAACAUGAGGAUCACCCAUGUCGGUA [#1 Same State - Theophylline A Attempt #28 (HarryS)] | 0.00974 µM | 0.0121 µM | 0.0112 µM | – | – |
| GGCCGAUGGUGCGAUACCAGCUUGAGUGUACUGGCCAGGUACAUGAGGAUCACCCAUGUAAGCCCUUGGCAGCGCGUCAAAGGCC [#1 Exclusion - Theophylline B Attempt #20 (HarryS)] | 0.00709 µM | 0.0176 µM | 0.0105 µM | 0.0113 µM | 0.0242 µM |

| Sequence | apparent KD of MS2 coat protein (input ligand: arginine 13.2 mM) | apparent KD of MS2 coat protein [1] | apparent KD of MS2 coat protein [2] | apparent KD of MS2 coat protein (input ligand: none) | apparent KD of MS2 coat protein [3] |
| --- | --- | --- | --- | --- | --- |
| UGUAUGUGAUUUGAUACCAGACCAGCUGGUGGUACUUGAGGAACACCCAAGUAGGUUUGGGUCCCUUGGCAGCAAAUCGCAUACU [SS Theo B #24 Ms11] | 0.111 µM | 0.16 µM | 0.138 µM | – | 0.0299 µM |
| UUUUUCAUAGGUUAUAGUUUAGAAACUGAAGGAGCGUGGUAAUACACAGGUAGGUCGCAGAUUUUACAUGAGGAUCACCCAUGUU [JR_ExcArginiA_Sub014] | 0.0221 µM | 0.0273 µM | 0.0256 µM | 0.0232 µM | 0.027 µM |
| AAUAAUAAGGCGGCCGCCACUACACAUGAGGAUCACCCAUGUCUCGCGGGCUUGCGUUGGGAAAGUAGGACCGGGCCAAUAAUAA [Exclusion - Tryptophan B (Freestyle 9)] | 0.0153 µM | 0.026 µM | 0.0157 µM | 0.0215 µM | 0.0273 µM |
| AGCUCGACUCGCAGCUGGAUGCCCGCUUGCCGAGGACCGGUACGGCCGCCACUCGUCACUCGACAUGAGGAUCACCCAUGUGAUA [theeternabot_exclusion_MS2_Trp_A_32] | 0.0363 µM | 0.136 µM | – | – | 0.14 µM |
| GCUAGGUCUACGGCCGCCACUAGACGUGGGUAAGACAUGAGGAUCACCCAUGUACUACGGGCGCUUAGGACCGGGUAGACCUAGC [SSTB NP+V+V2 #17 +-Same Structure] | 0.116 µM | 0.187 µM | – | – | 0.285 µM |
| AAUGUGAAGGCGGCCGCCACUGAUAAUAGACAUGAGGAUCACCCAUGUAUAAAUCCUCAAUAAGACAGGACCGGGCCAACUACGU [Exclusion Tryptophan B GF 1] | 0.093 µM | 0.114 µM | – | – | 0.136 µM |
| GAUAUAACAAAAGUUGUAUCAGUGGGUGAACGAGGACCGGUACGGCCGCCACUCGGACAUGAGGAUCACCCAUGUCCAUGUGAAA [AstrosExyTryA#18] | 0.0116 µM | 0.0231 µM | 0.0443 µM | 0.0147 µM | 0.0198 µM |
| CAUUAAGUAACUGAUACCAGUGUACUGACAUGAGGAUCACCCAUGUUGGGUUUUGUUGUACACCCUUGGCAGCAGAAUCUUAAUG [AstrosExyTheB#3] | 0.0447 µM | 0.0702 µM | 0.0622 µM | – | – |
| AUGUCGUUGAAUAUAGCGGCUUGGAGUGAUACCAGAAUGAUCCAAUUCCCUUGGCAGCAUUACAUGAGGAUCACCCAUGUUCCAG [SSTheo A #23] | 0.0241 µM | 0.0555 µM | 0.0486 µM | 0.0371 µM | 0.0896 µM |
| UCGGGCAGAGCGGCCGCCACUGUAUGGCAUGCGGAUGAAGGAACAUGAGGAUCACCCAUGUAGAUUAGGACCGGGCUUGCGGAGA [p''pmullin] | 0.0291 µM | 0.0229 µM | 0.02 µM | 0.0198 µM | 0.0177 µM |
| AAUUAUCAGUCGGCCGCCACUGACACAUGAGGAUCACCCAUGUAACAUGGGUAAAAUUAACUGAACAGGACCGGGACAAAGGCUA [JR_ExcTryptoB_Sub008] | 0.179 µM | 0.671 µM | – | – | 0.74 µM |
| AAAAUAAAAGGUGCAAAAUCCUAAUGUGAAGGAGCGCACGAAAGUGCAGGUAGGUCGCACAUGAGGAUCACCCAUGUAGCACCAA [ArgEX 4 #SwitchBubble] | 0.0548 µM | 0.115 µM | 0.147 µM | 0.146 µM | 0.211 µM |
| AUCGUACCUGAGGAUACCAGCAUGUGAUCAUAACAUGAGGAUCACCCAUGUAAUCAGUGAUGCCCUUGGCAGCUUAGUCGAUACA [Same State - Theophylline B (Freestyle 7)] | 0.0587 µM | 0.101 µM | 0.0583 µM | – | – |
| ACAUGAGGAUCACCCAUGUAUGACUAUCCUCGAGGACCGGUACGGCCGCCACUCGAAGGAGUGGCUCGCGAGUGCGCACUUGCGA [5' end] | 0.0109 µM | 0.0192 µM | 0.0121 µM | 0.0119 µM | 0.0118 µM |
| UGGUACAUGGCGGCCGCCACUUCACGUAAAAUAAAAACUUGAGGAACACCCAAGUAAUAAGUUGGGAGGACCGGGUCAUGUACCU | 0.0353 µM | 0.0417 µM | 0.0261 µM | 0.0362 µM | 0.0391 µM |
| CGAAUAUAGGCUACGUGUCAUUGAGGCGAUACCAGAUUAUGCCAGAUCCCUUGGCAGCGCCAAACAUGAGGAUCACCCAUGUUCA [theeternabot_exclusion_MS2_Theo_A_38] | 0.0235 µM | 0.0248 µM | 0.0215 µM | – | – |
| AUCAUAAUAGACUCGUUAGAUUAUAUGGAACGAGGACCGGUACGGCCGCCACUCGUGAUGUACAUGAGGAUCACCCAUGUUAGCU [JR_Nu_SSTryptoA_Sub025] | 0.0152 µM | 0.0188 µM | – | – | 0.017 µM |
| CACUUCAUGUGAGAUACCAGUGCCUUACAUGAGGAUCACCCAUGUCGUAAUGUGGAGAAGCACCCUUGGCAGCUCGCUUCGAGUG [Theo B SS t6] | 0.0572 µM | 0.0916 µM | 0.0876 µM | – | – |
| GGAUAGGACAGAAGGAGCGUGAGAUGCAAAGCAUCAUUCCUCACAUGAGGAUCACCCAUGUCACAGGUAGGUCGCUGUCCUAUCG [ArgBX 4] | 0.0783 µM | 0.119 µM | 0.112 µM | 0.0951 µM | 0.11 µM |
